{"source": "patent US20160213760A1", "target": "human epidermal growth factor 2 (HER2)/neu receptor (human) (UniProt P04626)", "test": "cell-based or functional assay"}
{"substance": "protein conjugate H43 (ANG4043; trastuzumab conjugated to Angiopep-2) (antibody)", "values": [{"measurement": "IC50 of BT-474 cell proliferation (tritiated thymidine incorporation after 5-day treatment)", "value": 3.16, "unit": "nM"}]}
